Paper PMC12846072

Biological target: VP2 capsid protein of Epizootic hemorrhagic disease virus serotype 8, wild type (Epizootic hemorrhagic disease virus serotype 8 (EHDV-8)) (UniProt Q00273)
Assay: SEC; FPLC-SEC on Superose 6 16/300 in PBS 1X pH 7.4, calibrated with the gel filtration HMW calibration kit; oligomeric state from retention time

Which stoichiometry N does the source give for “VP2 capsid protein of Epizootic hemorrhagic disease virus serotype 8, wild type (from UniProt Q00273 1-971) (natural protein)” here?
Its stoichiometry N is 3.
